Laboratory results from paper PMC3193378 (European Journal of Immunology, 2011).

T1: soluble CD14 protein (sCD14, aa 1-352) (human, UniProt P08571 20-352)
T1 sequence (looked up): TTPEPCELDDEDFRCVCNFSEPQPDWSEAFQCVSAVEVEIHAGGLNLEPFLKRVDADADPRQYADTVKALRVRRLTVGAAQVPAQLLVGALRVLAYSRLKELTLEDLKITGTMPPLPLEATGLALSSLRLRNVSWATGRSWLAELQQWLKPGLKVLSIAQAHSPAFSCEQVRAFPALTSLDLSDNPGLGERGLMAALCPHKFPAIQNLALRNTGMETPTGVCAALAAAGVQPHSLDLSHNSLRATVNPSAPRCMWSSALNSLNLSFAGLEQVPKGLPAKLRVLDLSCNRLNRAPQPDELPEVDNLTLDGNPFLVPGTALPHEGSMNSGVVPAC


Key:
[1] = target: T1, soluble CD14 protein (sCD14, aa 1-352); assay: ELISA
[2] = target: T1, soluble CD14 protein (sCD14, aa 1-352); assay: pull-down

Binder | binding result [1] | binding result [2]
6-His-tagged HMGB1 B box protein (aa 88-162) (domain or fragment, human, UniProt P09429 88-162, looked up) KFKDPNAPKRPPSAFFLFCSEYRPKIKGEHPGLSIGDVAKKLGEMWNNTAADDKQPYEKKAAKLKEKYEKDIAAY | binds | 
GST-HMGB1 (natural protein, human, UniProt P09429 1-215, looked up) MGKGDPKKPRGKMSSYAFFVQTCREEHKKKHPDASVNFSEFSKKCSERWKTMSAKEKGKFEDMAKADKARYEREMKTYIPPKGETKKKFKDPNAPKRPPSAFFLFCSEYRPKIKGEHPGLSIGDVAKKLGEMWNNTAADDKQPYEKKAAKLKEKYEKDIAAYRAKGKPDAAKKGVVKAEKSKKKKEEEEDEEDEEDEEEEEDEEDEDEEEDDDDE |  | binds
